The assay addresses Neurospora crassa importin-α (residues 75-529) (Neurospora crassa). Description: ITC; importin-α (50 μM) in the cell, PAC-3 NLS peptide (500 μM) titrated from the syringe; 20°C; 20 mM Tris-HCl pH 8.0, 100 mM NaCl; single binding site model. (In ITC the heat of successive injections is recorded.)

Sequence of Neurospora crassa importin-α (residues 75-529) (Neurospora crassa) (G5EB89 other isoform, or with tags, fused parts or gaps): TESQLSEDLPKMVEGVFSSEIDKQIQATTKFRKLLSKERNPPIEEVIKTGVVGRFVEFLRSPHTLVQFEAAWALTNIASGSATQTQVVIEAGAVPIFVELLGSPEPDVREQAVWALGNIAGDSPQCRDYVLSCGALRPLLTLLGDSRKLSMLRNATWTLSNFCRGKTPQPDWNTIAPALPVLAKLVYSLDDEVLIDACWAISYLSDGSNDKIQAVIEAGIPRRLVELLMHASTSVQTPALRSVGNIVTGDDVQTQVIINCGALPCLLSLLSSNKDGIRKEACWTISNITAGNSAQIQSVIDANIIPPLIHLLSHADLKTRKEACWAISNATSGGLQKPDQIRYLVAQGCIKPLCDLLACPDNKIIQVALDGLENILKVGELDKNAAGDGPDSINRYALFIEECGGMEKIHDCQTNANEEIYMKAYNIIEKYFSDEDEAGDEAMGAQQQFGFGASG
Sequence of PAC-3 NLS peptide (peptide): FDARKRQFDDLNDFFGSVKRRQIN

The Kd is the equilibrium constant for the complex coming apart. Low readings indicate higher affinity, high ones lower affinity. As usually defined, the stoichiometry N is the number of molecules, sites or subunits per partner or assembly. In the case of PAC-3 NLS peptide, the dissociation constant Kd turned out to be 390 nM, the dH is -12.1 kcal/mol and the stoichiometry N was determined as 1.

(Values after paper PMC4996508.)
